The text below walks through data of patent US20260193348A1 (ANTENGENE BIOLOGICS, published 2026).

The target of experiment [1] is T1, GPRC5D (G-protein coupled receptor family C group 5 member D), human, on multiple myeloma cell lines (human, UniProt Q9NZD1 1-345). The experiment is described as follows: cell-based or functional assay.
Experiment [2] addresses T1, GPRC5D (G-protein coupled receptor …). The experiment is described as follows: cell-based or functional assay. This is another data set of the same source.
Experiment [3] has the same target. The experiment is described as follows: FACS, MM.1S cells. On the procedure:
(§1) The binding affinities of the generated humanized Fab-scFv-Fab bispecific antibodies were determined by FACS analysis. […] (a) Jurkat cells were washed by Staining Buffer (PBS+1% BSA) in round bottom 96-well plate. [0833] (b) Antibody dilutions and cells were added to each well, incubated at 4 degrees for 1 hour. [0834] (c) Cells were spined down at 300 g for 3 minutes, and the supernatants were discarded. [0835] (d) Cells were washed with Staining Buffer. […] (e) Step (d) was repeated and the cells were incubated for 0.5 hours at 4 degrees with secondary antibody in Staining Buffer. [0837] (f) After incubation, step (d)-(e) were repeated. […] (g) Staining Buffer was added and fluorescence signals were recorded by flow cytometry.
(§2) The binding affinities of the generated humanized Fab-scFv-Fab bispecific antibodies to different multiple myeloma cell lines were evaluated by FACS analysis. The protocol for FACS analysis is identical to that described in Example 3.2, except that different cells were used in this example, i.e., multiple myeloma cell lines (MM.1S, […], L363 and RPMI 8226) were used in this example.
Background: Flow cytometry measures light scatter and fluorescence of single cells or particles in a stream.

Experiment [4] has the same target. The experiment is described as follows: cell-based or functional assay. This is another data set of the same source.
Experiment [5] deals with T2, CD3 (Cluster of Differentiation 3 protein), human, on T cells / Jurkat cells (human, UniProt P07766 23-207; P04234 22-171; P09693 23-182).
T2 construct: whole, on cells; part of the TCR-CD3 complex; also called human CD3
T2 sequence (P07766 23-207, chain 1 of 3): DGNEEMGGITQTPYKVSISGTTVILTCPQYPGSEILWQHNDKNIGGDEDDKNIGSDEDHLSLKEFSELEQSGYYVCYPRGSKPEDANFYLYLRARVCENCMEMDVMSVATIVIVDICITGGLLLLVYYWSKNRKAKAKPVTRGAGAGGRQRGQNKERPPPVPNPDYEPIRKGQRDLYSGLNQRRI
T2 sequence (P04234 22-171, chain 2 of 3): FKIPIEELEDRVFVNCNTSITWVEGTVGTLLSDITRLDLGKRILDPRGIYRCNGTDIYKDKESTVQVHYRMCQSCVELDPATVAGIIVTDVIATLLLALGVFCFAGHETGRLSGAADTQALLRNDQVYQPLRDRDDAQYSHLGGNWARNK
T2 sequence (P09693 23-182, chain 3 of 3): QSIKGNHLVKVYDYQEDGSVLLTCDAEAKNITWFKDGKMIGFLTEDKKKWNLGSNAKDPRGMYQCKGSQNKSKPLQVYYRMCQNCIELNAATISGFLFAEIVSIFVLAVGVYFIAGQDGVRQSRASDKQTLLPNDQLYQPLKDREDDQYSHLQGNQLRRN
In words: FACS, Jurkat cells, antibody at 50 µg/ml. In short, it runs like this:
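Jurkat cells in PBS + 1% BSA were incubated with humanized Fab-scFv-Fab bispecific antibody dilutions for 1 hour at 4 degrees, then washed. A secondary antibody was applied for 0.5 hours at 4 degrees. Binding was read as fluorescence by flow cytometry.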

Experiment [6] has as its target T2, CD3 (Cluster of Differentiation 3 …). In words: FACS, CD3+ T cells isolated from normal donors. On the procedure:
To evaluate the binding affinity of the generated chimeric bispecific antibody to T cells, the isolated CD3⁺ T cells were stained by antibodies and the binding affinity was determined by FACS analysis. The protocol of FACS analysis is described as follows: [0785] (a) CD3⁺ T cells were isolated from normal donors. [0786] (b) The isolated CD3⁺ T cells were washed by Staining Buffer (PBS+1% BSA) in round bottom 96-well plate. […] (c) Antibody dilutions were added to each well and mixed with the CD3+ T cells, incubated at 4 degrees for 1 hour. […] (d) Cells were spined at 300 g for 3 minutes, then the supernatants were discarded. [0789] (e) Cells were washed with Staining Buffer. [0790] (f) Step (d) was repeated, and the cells were incubated with secondary antibody in Staining Buffer for 0.5 hours at 4 degrees. [0791] (g) After incubation, step (d)-(e) were repeated. [0792] (h) Cells were resuspended in Staining Buffer and fluorescence signals were recorded by flow cytometry.

Experiment [7] addresses T1, GPRC5D (G-protein coupled receptor …). In words: FACS, MOLP-8 cells. The method, then: as §1, §2
Experiment [8] shares this target. In words: cell-based or functional assay. This is another data set of the same source.
The target in experiment [9] is T3, GPRC5D on MM.1S cells (human, UniProt Q9NZD1 1-345). In words: cell-based or functional assay.
T3 sequence (Q9NZD1 whole entry): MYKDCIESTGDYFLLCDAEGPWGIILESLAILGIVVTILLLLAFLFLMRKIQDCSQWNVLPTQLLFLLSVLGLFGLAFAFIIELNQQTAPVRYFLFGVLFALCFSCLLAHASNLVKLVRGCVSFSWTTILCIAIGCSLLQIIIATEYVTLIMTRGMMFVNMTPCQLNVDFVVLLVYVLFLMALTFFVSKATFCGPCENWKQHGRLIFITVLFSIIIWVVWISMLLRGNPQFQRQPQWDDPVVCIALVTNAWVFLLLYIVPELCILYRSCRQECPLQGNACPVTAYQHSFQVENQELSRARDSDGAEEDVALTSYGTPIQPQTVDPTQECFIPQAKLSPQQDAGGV
The target of experiment [10] is T3, GPRC5D on MM.1S cells. In words: FACS on MM.1S cells. On the procedure: as §1
The binding affinities of the generated humanized Fab-scFv-Fab bispecific antibodies were determined by FACS analysis. The ATG-Bis-40E9 was used as positive control and hIgG1 isotype was used as negative control. The protocol for FACS analysis is identical to that described in Example 3.2, except that MM.1S cells were used in this example.

The target of experiment [11] is T3, GPRC5D on MM.1S cells. In words: cell-based or functional assay. This is another data set of the same source.
In the next experiment the target is T4, CD3 on Jurkat cells (UniProt P07766 23-207; P04234 22-171; P09693 23-182).
T4 construct: whole, on cells; On the cell, CD3 stands in the TCR-CD3 complex; also called cluster of differentiation 3
T4 sequence (P07766 23-207, chain 1 of 3): as the sequence (P07766 23-207, chain 1 of 3) above
T4 sequence (P04234 22-171, chain 2 of 3): as the sequence (P04234 22-171, chain 2 of 3) above
T4 sequence (P09693 23-182, chain 3 of 3): as the sequence (P09693 23-182, chain 3 of 3) above
In words: FACS on Jurkat cells. The method, then:
as §1
The binding affinities of the generated humanized Fab-scFv-Fab bispecific antibodies were determined by FACS analysis. The ATG-Bis-40E9 described in Example 1 was used as positive control and hIgG1 isotype was used as negative control. The protocol for FACS analysis is described in Example 3.2 above.

Positions count from the first letter of the chain named. In names and notes the source's numbering stands. Where two headings read alike, the source gives them in different places.

T1 sequence (Q9NZD1 whole entry): as the sequence (Q9NZD1 whole entry) above

B1: ATG-Bis-40E9 (bispecific antibody)
heavy: EVQLQQSGPELVKPGASVKMSCKASGYTFTSYVIHWVKQKTGQGLEWIGYFNPYNDGTKYNEEFKGKATLTSDKSSNTAYMELNSLTSDDSAVYFCARGGVRRYFDVWGAGTTVTVSS
heavy (part 1 of 2): B1 heavy
heavy (part 2 of 2): GGGGSGGGGSEVQLQLSGPELVKPGASVKMSCKASGYTFSSYVIHWVKQKPGQGLEWIGYINPYNDVIKYNEKFKGKATLTSDKSSSTAYMELSSLTSEDSAVYYCARDSYYSYDGFAYWGQGTLVTVSAGGGGSGGGGSGGGGSGGGGSQIVLTQSPAIMSASPGEKVTMTCSASSSVSYMHWYQQKSGTSPKRWIYDTSKLASGVPARFSGSGSGTSYSLTISSMEAEDAATYYCQQWSSNPPTFGGGTKVEIKGGGGSGGGGS
light: DIQMTQSPSSLSASLGERVSLTCRASQDIGSNLNWLQQEPDGTIKRLIYATFGLDSGVPKRFSGSRSGSDYSLTISSLESEDFVDYYCQQYASFPYTFGGGTKLEIK
notes: Fab-scFv-Fab (2+1) format: two anti-GPRC5D Fabs, one anti-CD3 scFv; LALA (L234A, L235A, EU); also called chimeric 2+1 bispecific antibody; 108C4C12 Fab x 40-C12-C10-E9 scFv; not shown: CH1; CL; CH2-CH3 with L234A, L235A; heavy chain constant region with L234A, L235A
Usually EC50 stands for the concentration that produces a half-maximal response. The low end stands for a more potent agent, the high end for a less potent agent. B1: in experiment [1], the “IC50 (nM), T-Cell Dependent Cytotoxicity, MM.1S” value stood at 0.00641 nM; the “IC50 (nM), T-Cell Dependent Cytotoxicity, MOLP-8” value worked out at 0.00607 nM; the “IC50 (nM), T-Cell Dependent Cytotoxicity, RPMI8226” value is 0.0351 nM; the “Top (%), T-Cell Dependent Cytotoxicity, MM.1S” value is 81.5%. Besides, in experiment [1], the “Top (%), T-Cell Dependent Cytotoxicity, MOLP-8” value is 59% and the “Top (%), T-Cell Dependent Cytotoxicity, RPMI8226” value came out at 9%. In [2], the “IC50 (nM), T-Cell Dependent Cytotoxicity, L363” value amounted to 0.001 nM; the “IC50 (nM), T-Cell Dependent Cytotoxicity, MM.1S” value amounted to 0.002 nM; the “IC50 (nM), T-Cell Dependent Cytotoxicity, MOLP-8” value is 0.001 nM; the “IC50 (nM), T-Cell Dependent Cytotoxicity, RPMI8226” value amounted to 0.009 nM. In experiment [3], the EC50 was found to be 11.3 nM and the “Top (MFI)” value amounted to 1200 MFI. In experiment [4], the “EC50 (nM), luciferase assay, L363” value came to 0.028 nM; the “EC50 (nM), luciferase assay, MM.1S” value came to 0.787 nM; the “EC50 (nM), luciferase assay, MOLP-8” value was 0.0186 nM; the “EC50 (nM), luciferase assay, RPMI8226” value worked out at 0.117 nM. Moreover, in experiment [4], the “Top (RLU), luciferase assay, L363” value worked out at 1050 RLU; the “Top (RLU), luciferase assay, MM.1S” value is 3550 RLU; the “Top (RLU), luciferase assay, MOLP-8” value came out at 826 RLU; the “Top (RLU), luciferase assay, RPMI8226” value stood at 776 RLU. Moreover, in [5], the “MFI (50 µg/ml)” value stood at 490 MFI. In addition, in [6], the response was half-maximal at 287 nM (EC50) and the “Top (MFI)” value amounted to 1990 MFI. For the same molecule, in [7], it took 0.817 nM to reach a half-maximal effect (EC50) and the “Top (MFI)” value stood at 958 MFI. Besides, in experiment [8], the “EC50 (nM), luciferase assay, L363” value is 69.4 nM; the “EC50 (nM), luciferase assay, MM.1S” value is 0.739 nM; the “EC50 (nM), luciferase assay, MOLP-8” value came to 0.374 nM; the “EC50 (nM), luciferase assay, RPMI8226” value amounted to 0.071 nM.

B2: Bis-108+147-S54R.H (bispecific antibody)
chain 1: EVQLVQSGAEVKKPGASVKVSCKASGYTFTSYVIHWVRQAPGQGLEWMGYFNPYNDGTKYNEEFKGRVTLTSDKSTSTAYMELRSLRSDDTAVYYCARGGVRRYFDVWGQGTTVTVSS
chain 2: EVQLVQSGAEVKKPGSSVKVSCKASGYTFTSYWMHWVRQAPGQCLEWMGNINPRSGATNYNEKFKSRVTLTVDKSTSTAYMELSSLRSEDTAVYYCARDRSSQYYFDYWGQGTTVTVSSGGGGSGGGGSGGGGSGGGGSDIVMTQSPDSLAVSLGERATINCKSSQSLLNSRSRKNYLAWYQQKPGQPPKLLIYWASTRESGVPDRFSGSGSGTDFTLTISSLQAEDVAVYYCTQSYTLRTFGCGTKVEIK
chain 3: DIQMTQSPSSLSASVGDRVTITCRASQDIGSNLNWLQQKPGKAIKRLIYATFGLDSGVPSRFSGSRSGTDFTLTISSLQPEDFATYYCQQYASFPYTFGGGTKVEIK
In the case of B2, in the experiment with GPRC5D on MM.1S cells [9], the “EC50, Jurkat-NFAT-Luciferase assay in the presence of MM.1S cells” value (“EC50, Jurkat-NFAT-Luciferase assay” below) was 0.24 nM and the “Top RLU, Jurkat-NFAT-Luciferase assay in the presence of MM.1S cells” value (“Top RLU, Jurkat-NFAT-Luciferase assay” below) is 362 RLU. In the experiment with GPRC5D on MM.1S cells [10], this molecule displayed an EC50 of 3.7 nM and a Top signal of 2620 MFI. Also, in the experiment with GPRC5D on MM.1S cells [11], the “IC50 of T-cell dependent cytotoxicity on MM.1S cells” value (shortened to “IC50 … on MM.1S cells”) was 1.25 nM and the “Top (%) target cell killing, MM.1S cells” value came to 110%. Moreover, the Top signal in the experiment with CD3 on Jurkat cells is 293 MFI.

B3: Bis-108+147-S102Q.H (bispecific antibody)
chain 1: B2 chain 1
chain 2: B2 chain 2 with R54S, S102Q
chain 3: B2 chain 3
For the molecule B3, in the experiment with GPRC5D on MM.1S cells [9], the “EC50, Jurkat-NFAT-Luciferase assay” value stood at 0.26 nM and the “Top RLU, Jurkat-NFAT-Luciferase assay” value came to 358 RLU. In addition, in the experiment with GPRC5D on MM.1S cells [10], the response was half-maximal at 1.29 nM (EC50) and the Top signal was found to be 1820 MFI. Moreover, in the experiment with GPRC5D on MM.1S cells [11], the “IC50 … on MM.1S cells” value was determined as 2.78 nM and the “Top (%) target cell killing, MM.1S cells” value came to 131%. Besides, the Top signal in the experiment with CD3 on Jurkat cells came out at 141 MFI.

B4: Bis-108+147-S32T.L (bispecific antibody)
chain 1: B2 chain 1
chain 2: B2 chain 2 with R54S, S171T
chain 3: B2 chain 3
B4: in the experiment with GPRC5D on MM.1S cells [9], the “EC50, Jurkat-NFAT-Luciferase assay” value stood at 0.22 nM and the “Top RLU, Jurkat-NFAT-Luciferase assay” value was 380 RLU. In the experiment with GPRC5D on MM.1S cells [10], this molecule had an EC50 of 2 nM and a Top signal of 2040 MFI. Besides, in the experiment with GPRC5D on MM.1S cells [11], the “IC50 … on MM.1S cells” value was determined as 4.76 nM and the “Top (%) target cell killing, MM.1S cells” value turned out to be 166%. The same molecule came in with a Top signal with CD3 on Jurkat cells of 158 MFI.

B5: Bis-108+147-R100Q.H (bispecific antibody)
chain 1: B2 chain 1
chain 2: B2 chain 2 with R54S, R100Q
chain 3: B2 chain 3
Turning to B5, in the experiment with GPRC5D on MM.1S cells [9], the “EC50, Jurkat-NFAT-Luciferase assay” value came out at 0.98 nM and the “Top RLU, Jurkat-NFAT-Luciferase assay” value stood at 39.2 RLU. In the experiment with GPRC5D on MM.1S cells [10], the EC50 came out at 1.87 nM and the Top signal stood at 1830 MFI. For the same molecule, in the experiment with GPRC5D on MM.1S cells [11], the “IC50 … on MM.1S cells” value was found to be 7.53 nM and the “Top (%) target cell killing, MM.1S cells” value is 46.3%. In the experiment with CD3 on Jurkat cells, the Top signal amounted to 50.9 MFI.
